Test results as given in article PMC7174398 (Nature Communications, 2020).

Experiments:
[1] = biological target: the molecule itself; test: SEC-MALS; mHsp60 (WT or variant) with mHsp10, pre-incubated with 1 mM ATP, 1 mM BeCl2 and 10 mM NaF for 5 min; Superose-6, ~25 C
[2] = biological target: the molecule itself; test: SEC-MALS; mHsp60 with mHsp10, pre-incubated with 1 mM ATP for 5 min; Superose-6, ~25 C

B1: wild-type human mitochondrial Hsp60 (mHsp60) (natural protein)
chain: GSAKDVKFGADARALMLQGVDLLADAVAVTMGPKGRTVIIEQSWGSPKVTKDGVTVAKSIDLKDKYKNIGAKLVQDVANNTNEEAGDGTTTATVLARSIAKEGFEKISKGANPVEIRRGVMLAVDAVIAELKKQSKPVTTPEEIAQVATISANGDKEIGNIISDAMKKVGRKGVITVKDGKTLNDELEIIEGMKFDRGYISPYFINTSKGQKCEFQDAYVLLSEKKISSIQSIVPALEIANAHRKPLVIIAEDVDGEALSTLVLNRLKVGLQVVAVKAPGFGDNRKNQLKDMAIATGGAVFGEEGLTLNLEDVQPHDLGKVGEVIVTKDDAMLLKGKGDKAQIEKRIQEIIEQLDVTTSEYEKEKLNERLAKLSDGVAVLKVGGTSDVEVNEKKDRVTDALNATRAAVEEGIVLGGGCALLRCIPALDSLTPANEDQKIGIEIIKRTLKIPAMTIAKNAGVEGSLIVEKIMQSSSEVGYDAMAGDFVNMVEKGIIDPTKVVRTALLDAAGVASLLTTAEVVVTEIPKEEKDPGMGAMGGMGGGMGGGMF
notes: residues left at the N-terminus after TEV cleavage and removal of the HisTag; human mitochondrial Hsp60 (mt-cpn60); Oligomeric state depends on nucleotide and concentration: monomers, heptameric single rings, tetradecameric double rings; also called WT mHsp60; mt-cpn60; source: E. coli Rosetta, purified (nickel-agarose, TEV cleavage, anion exchange, oligomerised with ATP, Superdex 200); not …
stoichiometry N [1]: 14
stoichiometry N [2]: 7
